{
  "source": "paper PMC11827629",
  "origin": "cited, not measured here",
  "system": "thrombin (as in cited literature)",
  "assay": "cited",
  "settings": "smFRET: 1x PBS with 2.5 mM PCA, 0.155 U/ul PCD, 1 mM Trolox, 5 nM Cy3-aptamer, 23 +/- 1 C, pH not stated; QCM: PBS, flow 45 +/- 3 ul/min, thrombin 0.06-16.5 nM",
  "note": "pKd: −log10 of the molar value.",
  "data": [
    {"substance": "NU172 (cited)", "values": [
      {"measurement": "pKd", "result": 8.49}
    ]},
    {"substance": "RE31 (cited)", "values": [
      {"measurement": "pKd", "result": 8.85}
    ]},
    {"substance": "HD1 (cited)", "values": [
      {"measurement": "pKd", "result": 8.15}
    ]}
  ]
}
